In paper PMC11996858, “Cathepsin K cleavage of angiopoietin-2 creates detrimental Tie2 antagonist fragments in sepsis” (The Journal of Clinical Investigation, 2025):

Target: the molecule itself
Assay: non-reducing SDS-PAGE with Western blot; recombinant ANGPT2 incubated with CM-Mq^Veh or CM-Mq^LPS (serum-free conditioned media of RAW264.7 cells), then SDS-PAGE under nonreducing conditions against reduced conditions (10% beta-mercaptoethanol) and Western analysis for ANGPT2

B1: recombinant human angiopoietin-2, full length (ligand, UniProt O15123 19-496, looked up)
chain: YNNFRKSMDSIGKKQYQVQHGSCSYTFLLPEMDNCRSSSSPYVSNAVQRDAPLEYDDSVQRLQVLENIMENNTQWLMKLENYIQDNMKKEMVEIQQNAVQNQTAVMIEIGTNLLNQTAEQTRKLTDVEAQVLNQTTRLELQLLEHSLSTNKLEKQILDQTSEINKLQDKNSFLEKKVLAMEDKHIIQLQSIKEEKDQLQVLVSKQNSIIEELEKKIVTATVNNSVLQKQQHDLMETVNNLLTMMSTSNSAKDPTVAKEEQISFRDCAEVFKSGHTTNGIYTLTFPNSTEEIKAYCDMEAGGGGWTIIQRREDGSVDFQRTWKEYKVGFGNPSGEYWLGNEFVSQLTNQQRYVLKIHLKDWEGNEAYSLYEHFYLSSEELNYRIHLKGLTGTAGKISSISQPGNDFSTKDGDNDKCICKCSQMLTGGWWFDACGPSNLNGMYYPQRQNTNKFNGIKWYYWKGSGYSLKATTMMIRPADF
notes: angiopoietin-2 (ANGPT2), human, recombinant full-length protein of about 75 kDa (glycosylated); As a secreted recombinant protein it probably lacks the signal peptide (surmised); also called ANGPT2; full-length ANGPT2; source: bought: R&D Systems
  stoichiometry N: ≥ 2
